The values below come from patent publication US20180044416A1.

The test concerns the target human FcRn with human beta2M on MDCK II clone 15 cells (human) (UniProt P55899). In words: cell-based or functional assay.
Chain of UniProt P55899 (P55899 24-365, chain 1 of 2): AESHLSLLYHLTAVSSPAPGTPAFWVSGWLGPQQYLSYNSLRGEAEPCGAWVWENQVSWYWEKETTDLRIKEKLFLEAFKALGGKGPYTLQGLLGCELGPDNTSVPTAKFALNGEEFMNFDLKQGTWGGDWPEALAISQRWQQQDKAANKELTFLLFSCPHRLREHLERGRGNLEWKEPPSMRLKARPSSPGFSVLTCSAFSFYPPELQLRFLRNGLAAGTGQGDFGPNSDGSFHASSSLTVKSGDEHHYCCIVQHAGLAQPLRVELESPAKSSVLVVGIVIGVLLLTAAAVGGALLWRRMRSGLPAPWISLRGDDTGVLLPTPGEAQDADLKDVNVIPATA
Chain of UniProt P55899 (P61769 21-119, chain 2 of 2, further chain): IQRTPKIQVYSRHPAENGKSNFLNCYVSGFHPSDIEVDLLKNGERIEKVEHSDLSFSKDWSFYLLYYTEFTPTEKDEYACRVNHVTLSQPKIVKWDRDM
For IgG1 IgM tail-piece, T307A (Fc fusion), the Blockade of IgG intracellular uptake EC50 is 0.54 µg/mL and the Blockade of IgG recycling EC50 came to 0.35 µg/mL.
On to IgG1 IgM tail-piece, H310L (Fc fusion), for which the Blockade of IgG recycling, maximal inhibition is 45%.
With IgG1 IgM tail-piece, V308F (Fc fusion), the Blockade of IgG intracellular uptake EC50 worked out at 0.12 µg/mL and the Blockade of IgG recycling EC50 worked out at 0.073 µg/mL.
In the same order, the values of IgG4 IgM tail-piece, V308F (Fc fusion) are 0.42 µg/mL and 0.56 µg/mL.
On to IgG4 IgM tail-piece, T307A (Fc fusion), for which the Blockade of IgG intracellular uptake EC50 worked out at 0.5 µg/mL.
Consider IgG4 IgM tail-piece, V308P (Fc fusion), for which the Blockade of IgG intracellular uptake EC50 turned out to be 0.51 µg/mL and the Blockade of IgG recycling EC50 was 0.42 µg/mL.
On the same counts, the results for IgG1 IgM tail-piece, V308P (Fc fusion) are 0.34 µg/mL and 0.55 µg/mL.
